In the MegaScale stability set (Tsuboyama et al. 2023):

B1: EHEE_rd2_0191 (parent)
chain: TTEYTFTDDEEARRAIEELKKRGLTFRYEKHGTTWRVRVD

Variants of: B1
Test: folding stability dG (cDNA display proteolysis); higher = more stable
Settings: PBS, room temperature

Variant	folding stability dG
TTESTFTDDEEARRAIEELKKRGLTFRYEKHGTTWRVRVD [Y4S]	0.036 kcal/mol
TTEATFTDDEEARRAIEELKKRGLTFRYEKHGTTWRVRVD [Y4A]	0.059 kcal/mol
TTEFTFTDDEEARRAIEELKKRGLTFRYEKHGTTWRVRVD [Y4F]	1.99 kcal/mol
TTEWTFTDDEEARRAIEELKKRGLTFRYEKHGTTWRVRVD [Y4W]	2.22 kcal/mol
TTECTFTDDEEARRAIEELKKRGLTFRYEKHGTTWRVRVD [Y4C]	2.79 kcal/mol
TTEHTFTDDEEARRAIEELKKRGLTFRYEKHGTTWRVRVD [Y4H]	0.788 kcal/mol
TTEQTFTDDEEARRAIEELKKRGLTFRYEKHGTTWRVRVD [Y4Q]	0.601 kcal/mol
TTEITFTDDEEARRAIEELKKRGLTFRYEKHGTTWRVRVD [Y4I]	1.44 kcal/mol
TTEKTFTDDEEARRAIEELKKRGLTFRYEKHGTTWRVRVD [Y4K]	0.122 kcal/mol
TTELTFTDDEEARRAIEELKKRGLTFRYEKHGTTWRVRVD [Y4L]	1.93 kcal/mol
TTETTFTDDEEARRAIEELKKRGLTFRYEKHGTTWRVRVD [Y4T]	0.315 kcal/mol
TTERTFTDDEEARRAIEELKKRGLTFRYEKHGTTWRVRVD [Y4R]	0.382 kcal/mol
TTENTFTDDEEARRAIEELKKRGLTFRYEKHGTTWRVRVD [Y4N]	-0.571 kcal/mol
TTEMTFTDDEEARRAIEELKKRGLTFRYEKHGTTWRVRVD [Y4M]	1.79 kcal/mol
TTEETFTDDEEARRAIEELKKRGLTFRYEKHGTTWRVRVD [Y4E]	-0.036 kcal/mol
TTEVTFTDDEEARRAIEELKKRGLTFRYEKHGTTWRVRVD [Y4V]	0.805 kcal/mol
TTEYTFTEDEEARRAIEELKKRGLTFRYEKHGTTWRVRVD [D8E]	1.29 kcal/mol
TTEYTFTYDEEARRAIEELKKRGLTFRYEKHGTTWRVRVD [D8Y]	0.721 kcal/mol
TTEYTFTHDEEARRAIEELKKRGLTFRYEKHGTTWRVRVD [D8H]	1.32 kcal/mol
TTEYTFTQDEEARRAIEELKKRGLTFRYEKHGTTWRVRVD [D8Q]	1.16 kcal/mol
TTEYTFTMDEEARRAIEELKKRGLTFRYEKHGTTWRVRVD [D8M]	0.896 kcal/mol
TTEYTFTADEEARRAIEELKKRGLTFRYEKHGTTWRVRVD [D8A]	1.24 kcal/mol
TTEYTFTKDEEARRAIEELKKRGLTFRYEKHGTTWRVRVD [D8K]	1.37 kcal/mol
TTEYTFTTDEEARRAIEELKKRGLTFRYEKHGTTWRVRVD [D8T]	2.29 kcal/mol
TTEYTFTLDEEARRAIEELKKRGLTFRYEKHGTTWRVRVD [D8L]	1.08 kcal/mol

Variant	folding stability dG
TTEYTFTWDEEARRAIEELKKRGLTFRYEKHGTTWRVRVD [D8W]	0.65 kcal/mol
TTEYTFTGDEEARRAIEELKKRGLTFRYEKHGTTWRVRVD [D8G]	1.33 kcal/mol
TTEYTFTFDEEARRAIEELKKRGLTFRYEKHGTTWRVRVD [D8F]	0.882 kcal/mol
TTEYTFTSDEEARRAIEELKKRGLTFRYEKHGTTWRVRVD [D8S]	2.44 kcal/mol
TTEYTFTIDEEARRAIEELKKRGLTFRYEKHGTTWRVRVD [D8I]	1.2 kcal/mol
TTEYTFTVDEEARRAIEELKKRGLTFRYEKHGTTWRVRVD [D8V]	1.36 kcal/mol
TTEYTFTNDEEARRAIEELKKRGLTFRYEKHGTTWRVRVD [D8N]	2.41 kcal/mol
TTEYTFTRDEEARRAIEELKKRGLTFRYEKHGTTWRVRVD [D8R]	1.39 kcal/mol
TTEYTFQDDEEARRAIEELKKRGLTFRYEKHGTTWRVRVD [T7Q]	1.88 kcal/mol
TTEYTFSDDEEARRAIEELKKRGLTFRYEKHGTTWRVRVD [T7S]	1.75 kcal/mol
TTEYTFLDDEEARRAIEELKKRGLTFRYEKHGTTWRVRVD [T7L]	1.83 kcal/mol
TTEYTFHDDEEARRAIEELKKRGLTFRYEKHGTTWRVRVD [T7H]	2.13 kcal/mol
TTEYTFIDDEEARRAIEELKKRGLTFRYEKHGTTWRVRVD [T7I]	1.68 kcal/mol
TTEYTFYDDEEARRAIEELKKRGLTFRYEKHGTTWRVRVD [T7Y]	2.47 kcal/mol
TTEYTFDDDEEARRAIEELKKRGLTFRYEKHGTTWRVRVD [T7D]	1.97 kcal/mol
TTEYTFGDDEEARRAIEELKKRGLTFRYEKHGTTWRVRVD [T7G]	1.37 kcal/mol
TTEYTFFDDEEARRAIEELKKRGLTFRYEKHGTTWRVRVD [T7F]	2.22 kcal/mol
TTEYTFWDDEEARRAIEELKKRGLTFRYEKHGTTWRVRVD [T7W]	1.89 kcal/mol
TTEYTFVDDEEARRAIEELKKRGLTFRYEKHGTTWRVRVD [T7V]	1.71 kcal/mol
TTEYTFKDDEEARRAIEELKKRGLTFRYEKHGTTWRVRVD [T7K]	1.62 kcal/mol
TTEYTFMDDEEARRAIEELKKRGLTFRYEKHGTTWRVRVD [T7M]	1.82 kcal/mol
TTEYTFRDDEEARRAIEELKKRGLTFRYEKHGTTWRVRVD [T7R]	1.59 kcal/mol
TTEYTFEDDEEARRAIEELKKRGLTFRYEKHGTTWRVRVD [T7E]	2.07 kcal/mol
TTEYTFPDDEEARRAIEELKKRGLTFRYEKHGTTWRVRVD [T7P]	0.677 kcal/mol
TTEYTFCDDEEARRAIEELKKRGLTFRYEKHGTTWRVRVD [T7C]	2.34 kcal/mol

Variant	folding stability dG
TTEYTFNDDEEARRAIEELKKRGLTFRYEKHGTTWRVRVD [T7N]	1.97 kcal/mol
TTEYTFADDEEARRAIEELKKRGLTFRYEKHGTTWRVRVD [T7A]	1.63 kcal/mol
TTVYTFTDDEEARRAIEELKKRGLTFRYEKHGTTWRVRVD [E3V]	2.56 kcal/mol
TTMYTFTDDEEARRAIEELKKRGLTFRYEKHGTTWRVRVD [E3M]	2.14 kcal/mol
TTYYTFTDDEEARRAIEELKKRGLTFRYEKHGTTWRVRVD [E3Y]	2.62 kcal/mol
TTSYTFTDDEEARRAIEELKKRGLTFRYEKHGTTWRVRVD [E3S]	1.55 kcal/mol
TTNYTFTDDEEARRAIEELKKRGLTFRYEKHGTTWRVRVD [E3N]	1.39 kcal/mol
TTTYTFTDDEEARRAIEELKKRGLTFRYEKHGTTWRVRVD [E3T]	2.31 kcal/mol
TTLYTFTDDEEARRAIEELKKRGLTFRYEKHGTTWRVRVD [E3L]	2.25 kcal/mol
TTPYTFTDDEEARRAIEELKKRGLTFRYEKHGTTWRVRVD [E3P]	0.266 kcal/mol
TTQYTFTDDEEARRAIEELKKRGLTFRYEKHGTTWRVRVD [E3Q]	1.47 kcal/mol
TTWYTFTDDEEARRAIEELKKRGLTFRYEKHGTTWRVRVD [E3W]	3.02 kcal/mol
TTKYTFTDDEEARRAIEELKKRGLTFRYEKHGTTWRVRVD [E3K]	0.77 kcal/mol
TTRYTFTDDEEARRAIEELKKRGLTFRYEKHGTTWRVRVD [E3R]	1.12 kcal/mol
TTEYIFTDDEEARRAIEELKKRGLTFRYEKHGTTWRVRVD [T5I]	2.71 kcal/mol
TTEYKFTDDEEARRAIEELKKRGLTFRYEKHGTTWRVRVD [T5K]	1.3 kcal/mol
TTEYAFTDDEEARRAIEELKKRGLTFRYEKHGTTWRVRVD [T5A]	1.23 kcal/mol
TTEYRFTDDEEARRAIEELKKRGLTFRYEKHGTTWRVRVD [T5R]	1.64 kcal/mol
TTEYQFTDDEEARRAIEELKKRGLTFRYEKHGTTWRVRVD [T5Q]	1.64 kcal/mol
TTEYNFTDDEEARRAIEELKKRGLTFRYEKHGTTWRVRVD [T5N]	1.36 kcal/mol
TTEYMFTDDEEARRAIEELKKRGLTFRYEKHGTTWRVRVD [T5M]	1.95 kcal/mol
TTEYYFTDDEEARRAIEELKKRGLTFRYEKHGTTWRVRVD [T5Y]	2.39 kcal/mol
TTEYEFTDDEEARRAIEELKKRGLTFRYEKHGTTWRVRVD [T5E]	1.79 kcal/mol
TTEYVFTDDEEARRAIEELKKRGLTFRYEKHGTTWRVRVD [T5V]	2.54 kcal/mol
TTEYLFTDDEEARRAIEELKKRGLTFRYEKHGTTWRVRVD [T5L]	2.25 kcal/mol

Variant	folding stability dG
TTEYWFTDDEEARRAIEELKKRGLTFRYEKHGTTWRVRVD [T5W]	2.68 kcal/mol
TTEYSFTDDEEARRAIEELKKRGLTFRYEKHGTTWRVRVD [T5S]	1.49 kcal/mol
TTEYDFTDDEEARRAIEELKKRGLTFRYEKHGTTWRVRVD [T5D]	0.819 kcal/mol
TTEYGFTDDEEARRAIEELKKRGLTFRYEKHGTTWRVRVD [T5G]	0.086 kcal/mol
TTEYCFTDDEEARRAIEELKKRGLTFRYEKHGTTWRVRVD [T5C]	2.33 kcal/mol
TTEYHFTDDEEARRAIEELKKRGLTFRYEKHGTTWRVRVD [T5H]	1.67 kcal/mol
TTEYFFTDDEEARRAIEELKKRGLTFRYEKHGTTWRVRVD [T5F]	2.51 kcal/mol
TTEYTMTDDEEARRAIEELKKRGLTFRYEKHGTTWRVRVD [F6M]	-0.111 kcal/mol
TTEYTTTDDEEARRAIEELKKRGLTFRYEKHGTTWRVRVD [F6T]	-0.433 kcal/mol
TTEYTWTDDEEARRAIEELKKRGLTFRYEKHGTTWRVRVD [F6W]	0.741 kcal/mol
TTEYTLTDDEEARRAIEELKKRGLTFRYEKHGTTWRVRVD [F6L]	0.168 kcal/mol
TTEYTITDDEEARRAIEELKKRGLTFRYEKHGTTWRVRVD [F6I]	0.614 kcal/mol
TTEYTGTDDEEARRAIEELKKRGLTFRYEKHGTTWRVRVD [F6G]	-0.522 kcal/mol
TTEYTYTDDEEARRAIEELKKRGLTFRYEKHGTTWRVRVD [F6Y]	1.96 kcal/mol
TTEYTFTDDIEARRAIEELKKRGLTFRYEKHGTTWRVRVD [E10I]	2 kcal/mol
TTEYTFTDDDEARRAIEELKKRGLTFRYEKHGTTWRVRVD [E10D]	2.15 kcal/mol
TTEYTFTDDLEARRAIEELKKRGLTFRYEKHGTTWRVRVD [E10L]	1.98 kcal/mol
TTEYTFTDDVEARRAIEELKKRGLTFRYEKHGTTWRVRVD [E10V]	2.02 kcal/mol
TTEYTFTDDFEARRAIEELKKRGLTFRYEKHGTTWRVRVD [E10F]	1.98 kcal/mol
TTEYTFTDDSEARRAIEELKKRGLTFRYEKHGTTWRVRVD [E10S]	1.87 kcal/mol
TTEYTFTDDAEARRAIEELKKRGLTFRYEKHGTTWRVRVD [E10A]	2.09 kcal/mol
TTEYTFTDDYEARRAIEELKKRGLTFRYEKHGTTWRVRVD [E10Y]	1.96 kcal/mol
TTEYTFTDDHEARRAIEELKKRGLTFRYEKHGTTWRVRVD [E10H]	1.93 kcal/mol
TTEYTFTDDMEARRAIEELKKRGLTFRYEKHGTTWRVRVD [E10M]	1.96 kcal/mol
TTEYTFTDDKEARRAIEELKKRGLTFRYEKHGTTWRVRVD [E10K]	1.98 kcal/mol

Variant	folding stability dG
TTEYTFTDDNEARRAIEELKKRGLTFRYEKHGTTWRVRVD [E10N]	2.12 kcal/mol
TTEYTFTDDWEARRAIEELKKRGLTFRYEKHGTTWRVRVD [E10W]	1.93 kcal/mol
TTEYTFTDDGEARRAIEELKKRGLTFRYEKHGTTWRVRVD [E10G]	2.07 kcal/mol
TTEYTFTDDTEARRAIEELKKRGLTFRYEKHGTTWRVRVD [E10T]	2.02 kcal/mol
TTEYTFTDDPEARRAIEELKKRGLTFRYEKHGTTWRVRVD [E10P]	0.527 kcal/mol
TTEYTFTDDQEARRAIEELKKRGLTFRYEKHGTTWRVRVD [E10Q]	1.95 kcal/mol
TTEYTFTDDREARRAIEELKKRGLTFRYEKHGTTWRVRVD [E10R]	1.99 kcal/mol
TTEYTFTDTEEARRAIEELKKRGLTFRYEKHGTTWRVRVD [D9T]	1.3 kcal/mol
TTEYTFTDMEEARRAIEELKKRGLTFRYEKHGTTWRVRVD [D9M]	1.83 kcal/mol
TTEYTFTDSEEARRAIEELKKRGLTFRYEKHGTTWRVRVD [D9S]	1.81 kcal/mol
TTEYTFTDIEEARRAIEELKKRGLTFRYEKHGTTWRVRVD [D9I]	2.08 kcal/mol
TTEYTFTDVEEARRAIEELKKRGLTFRYEKHGTTWRVRVD [D9V]	2 kcal/mol
TTEYTFTDFEEARRAIEELKKRGLTFRYEKHGTTWRVRVD [D9F]	2.33 kcal/mol
TTEYTFTDHEEARRAIEELKKRGLTFRYEKHGTTWRVRVD [D9H]	1.73 kcal/mol
TTEYTFTDNEEARRAIEELKKRGLTFRYEKHGTTWRVRVD [D9N]	1.63 kcal/mol
TTEYTFTDLEEARRAIEELKKRGLTFRYEKHGTTWRVRVD [D9L]	1.91 kcal/mol
TTEYTFTDYEEARRAIEELKKRGLTFRYEKHGTTWRVRVD [D9Y]	2.39 kcal/mol
TTEYTFTDGEEARRAIEELKKRGLTFRYEKHGTTWRVRVD [D9G]	1.81 kcal/mol
TTEYTFTDREEARRAIEELKKRGLTFRYEKHGTTWRVRVD [D9R]	1.92 kcal/mol
TTEYTFTDKEEARRAIEELKKRGLTFRYEKHGTTWRVRVD [D9K]	1.77 kcal/mol
TTEYTFTDEEEARRAIEELKKRGLTFRYEKHGTTWRVRVD [D9E]	2.41 kcal/mol
TTEYTFTDAEEARRAIEELKKRGLTFRYEKHGTTWRVRVD [D9A]	2.15 kcal/mol
TTEYTFTDQEEARRAIEELKKRGLTFRYEKHGTTWRVRVD [D9Q]	1.8 kcal/mol
TTEYTFTDPEEARRAIEELKKRGLTFRYEKHGTTWRVRVD [D9P]	2.3 kcal/mol
TTEYTFTDWEEARRAIEELKKRGLTFRYEKHGTTWRVRVD [D9W]	3.27 kcal/mol
